Publication PMC5600425
Where two headings read alike, the source gives them in different places.

Tests used:
AgrA DBD (LytTR domain) [1] = target: T1, AgrA DBD (LytTR domain) (Staphylococcus aureus, UniProt Q5HEG2 138-238); experiment: X-ray crystallography
T1 sequence: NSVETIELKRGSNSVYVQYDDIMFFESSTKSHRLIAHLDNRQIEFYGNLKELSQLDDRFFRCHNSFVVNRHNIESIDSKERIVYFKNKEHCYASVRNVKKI

AgrA [2] = target: T2, AgrA (Staphylococcus aureus COL, UniProt Q5HEG2 1-238); experiment: competition
T2 sequence: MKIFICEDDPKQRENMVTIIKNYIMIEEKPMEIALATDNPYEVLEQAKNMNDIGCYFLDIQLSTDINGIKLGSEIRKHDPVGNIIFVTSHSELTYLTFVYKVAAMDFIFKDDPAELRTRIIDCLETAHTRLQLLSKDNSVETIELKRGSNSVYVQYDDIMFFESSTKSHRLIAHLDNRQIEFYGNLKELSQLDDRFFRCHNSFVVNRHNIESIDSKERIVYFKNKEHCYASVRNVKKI

AgrA [3] = target: T2, AgrA; experiment: SPR
AgrA~P [4] = target: T3, AgrA~P (Staphylococcus aureus COL, UniProt Q5HEG2 1-238); experiment: SPR
T3 sequence: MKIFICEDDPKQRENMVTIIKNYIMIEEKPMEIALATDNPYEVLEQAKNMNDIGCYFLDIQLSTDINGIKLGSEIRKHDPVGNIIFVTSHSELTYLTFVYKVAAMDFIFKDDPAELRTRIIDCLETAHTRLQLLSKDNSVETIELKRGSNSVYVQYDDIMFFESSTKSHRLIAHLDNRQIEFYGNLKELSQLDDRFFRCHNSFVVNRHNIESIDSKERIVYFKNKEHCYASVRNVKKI

AgrA DBD (LytTR domain) [5] = target: T1, AgrA DBD (LytTR domain); experiment: X-ray crystallography; remark: listed apart in the source
AgrA~P [6] = target: T3, AgrA~P; experiment: competition
AgrA DBD (LytTR domain) [7] = target: T1, AgrA DBD (LytTR domain); experiment: X-ray crystallography; remark: listed apart in the source
AgrA DBD (LytTR domain) [8] = target: T1, AgrA DBD (LytTR domain); experiment: X-ray crystallography; remark: listed apart in the source

B1: P3_S1 (dsDNA)
DNA 1: TCGACTAGTTAAGAAA
DNA 2: ATTTCTTAACTAGTCG
- binding result (AgrA DBD (LytTR domain) [1]): binds

B2: P1 promoter (SPR) (dsDNA)
DNA 1: TCGAAATACCCGATGAAGTAAGTAGCATTAACTT
DNA 2: AAGTTAATGCTACTTACTTCATCGGGTATTTCGA
- binding result (AgrA [2]): binds

B3: P2-P3 intergenic region (negative control) (dsDNA)
DNA 1: TTTTTATGTTAAAATATTAAATACAAATTAC
DNA 2: GTAATTTGTATTTAATATTTTAACATAAAAA
- binding result (AgrA [3]): no binding
- binding result (AgrA~P [4]): no binding

B4: P2_S2 (dsDNA)
DNA 1: TTTAACAGTTAAGTAT
DNA 2: AATACTTAACTGTTAA
- binding result (AgrA DBD (LytTR domain) [5]): binds

B5: P3 promoter (SPR) (dsDNA)
DNA 1: TTCTTAACTAGTCGTTTTTTATTCTTAACTGTAA
DNA 2: TTACAGTTAAGAATAAAAAACGACTAGTTAAGAA
- binding result (AgrA~P [6]): binds
- binding result (AgrA [2]): binds

B6: P2_S1 (dsDNA)
DNA 1: TCCTACAGTTAGGCAA
DNA 2: ATTGCCTAACTGTAGG
- binding result (AgrA DBD (LytTR domain) [7]): binds

B7: P3_S2 (dsDNA)
DNA 1: ATTTACAGTTAAGAAT
DNA 2: AATTCTTAACTGTAAA
- binding result (AgrA DBD (LytTR domain) [8]): binds
